Test results published in paper PMC11476191, “Towards controlling activity of a peptide asparaginyl ligase (PAL) by lumazine synthetase compartmentalization” (Faraday Discussions, 2024).
One block for each molecule: values may come before it.

How the values were obtained:
[1] = molecular target: AaLS-13 (Aquifex aeolicus); experiment: SEC; Ni-NTA eluate of the co-expressed proteins on Superose 6; 50 mM sodium phosphate pH 7.0, 150 mM NaCl, 1 mM EDTA, 1 mM TCEP; fractions by SDS-PAGE; repeated in buffer at pH 7.0 and 7.4
[2] = molecular target: the molecule itself; experiment: negative stain transmission electron microscopy; purified protein samples (0.05-0.15 mg/mL) on carbon-covered copper grids, uranyl acetate stain, 200 kV

ratio of cpAaLS-OaAEP1-C247A to AaLS-13 in the cage (estimated from SDS-PAGE band intensity) (AaLS-13 per cpAaLS-OaAEP1-C247A) [1]: 3.3
Molecule: cpAaLS-OaAEP1-C247A

B1: AaLS-13 (other, Aquifex aeolicus)
chain: MEIYEGKLTAEGLRFGIVASRFNHALVGRLVEGAIDCIVRHGGREEDITLVCVPGSWEIPVAAGELARKEDIDAVIAIGVLIEGAEPHFDYIASEVSKGLANLSLELRKPISFGDITDDELEEAIECAGTEHGNKGWEAALSAIEMANLFKSLR
notes: negatively supercharged engineered variant of lumazine synthase from Aquifex aeolicus (AaLS); Self-assembles into a protein cage; also called His6-tagged AaLS-13; AsLS-13; source: E. coli SHuffle T7 Express, co-expressed with cpAaLS-OaAEP1-C247A (IPTG induction); in lysate, then purified (Ni-NTA IMAC, SEC)
binding result [2]: binds
